Experimental data reported in PMC7010297, “How the initiating ribosome copes with ppGpp to translate mRNAs” (PLoS Biology, 2020).
“And” between values parts separate entries of the source, which are not always exact repeats. Identical values can stand only once. Like-named read-outs stand apart in the source and are kept apart here.

B1: mTufA: TufA mRNA with full-length 5′ UTR, in vitro transcribed, codes for EF-Tu (nucleic acid)
chain: GGUUCUAUCGCCUUUAAAGAAGGCUUUAAGAAAGCGAAACCAGUUCUGCUUGAGCCGAUCAUGAAGGUUGAAGUAGAAACUCCGGAAGAGAACACCGGUGACGUUAUCGGUGACUUGAGCCGUCGUCGUGGUAUGCUCAAAGGUCAGGAAUCUGAAGUUACUGGCGUUAAGAUCCACGCUGAAGUACCGCUGUCUGAAAUGUUCGGAUACGCAACUCAGCUGCGUUCUCUGACCAAAGGUCGUGCAUCAUACACUAUGGAAUUCCUGAAGUAUGAUGAAGCGCCGAGUAACGUUGCUCAGGCCGUAAUUGAAGCCCGUGGUAAAUAAGCCUAAGGGUUAAUACCAAAGUCCCGUGCUCUCUCCUGAAGGGGAGAGCACUAUAGUAAGGAAUAUAGCCGUGUCUAAAGAAAAAUUUGAACG

How the values were obtained:
30S IC [1] = biological target: T1, 30S IC (Escherichia coli, UniProt P0A705); experiment: ppGpp tolerance of 30S IC formation by MST; type: binding; design: 6xHis (N); made in house
Procedure: (§1) Fig 7 SETIs and ppGpp tolerance. (A) Translation initiation efficiency as a function of mRNAs along five steps of transition from NS to S conditions. […] Symbols and error bars represent averages of three replicates and standard deviations, respectively (S1 Data). (C) Comparison of ppGpp tolerance as calculated from the ratio of translation initiation efficiencies found in the presence of 0.2 mM ppGpp over the efficiencies obtained in the absence of the alarmone (S1 Data). […] All 30S IC components are as in Fig 1. Dashed line indicates the average tolerance of all mRNAs lacking the SETI element.

30S IC [2] = biological target: T1, 30S IC; settings: for T. initiation Average / T. initiation Replicates: Fig 7A
Procedure: as §1
The transition towards stringent response entails changes in the composition of all guanosine nucleotides. […] To inquire how the 30S IC responds during the transition from non-stringent (NS) to stringent (S) guanosine nucleotide conditions in the cell, we measured translation initiation along 5 combinations of guanosine nucleotides by thermophoresis, from NS to S conditions (Fig 7A).
The 30S complexes were reconstituted using pure subunits, IFs, tRNAi, mRNA, and nucleotides. The 30S subunits were reactivated by incubation in TAKM20 buffer (as TAKM3.5 but with 20 mM MgCl2) for 1 hour at 37°C prior to use. Generally, 30S ICs were formed by incubation at 37°C for 30 minutes in TAKM7 using 1 μM 30S subunits, 4 μM mRNA, 2 μM IF1, 1 μM IF2, 1.5 μM IF3, 0.5 μM Bpy-Met-tRNA^fMet, and 0.2 mM guanosine nucleotides, unless otherwise stated in the Results or figure captions. Ligand titrations were prepared using serial dilutions using 1:1 mixing of complexes containing the highest concentration of the titrant with complexes lacking only the ligand under investigation. The number of reactions were set up to cover a wide range of concentrations.
MST was measured on 10-μL reactions using standard capillaries (MO-K022, NanoTemper Technologies, Munich, Germany) on a Monolith NT.115 (NanoTemper Technologies, Munich, Germany) at monochromatic LED with power input of 30% and IR laser power of 40%. The local temperature perturbation was expected to be less than 3°C. All measurements were performed at room temperature (22 ± 2°C). Three to four replicates were measured for each investigated reaction to calculate mean and standard deviation. […] KD were calculated using a hyperbolic or quadratic function using Graphpad Prism 6.0 (GraphPad, San Diego, California) or software provided by NanoTemper.

T1 sequence (P0A705 whole entry, looked up): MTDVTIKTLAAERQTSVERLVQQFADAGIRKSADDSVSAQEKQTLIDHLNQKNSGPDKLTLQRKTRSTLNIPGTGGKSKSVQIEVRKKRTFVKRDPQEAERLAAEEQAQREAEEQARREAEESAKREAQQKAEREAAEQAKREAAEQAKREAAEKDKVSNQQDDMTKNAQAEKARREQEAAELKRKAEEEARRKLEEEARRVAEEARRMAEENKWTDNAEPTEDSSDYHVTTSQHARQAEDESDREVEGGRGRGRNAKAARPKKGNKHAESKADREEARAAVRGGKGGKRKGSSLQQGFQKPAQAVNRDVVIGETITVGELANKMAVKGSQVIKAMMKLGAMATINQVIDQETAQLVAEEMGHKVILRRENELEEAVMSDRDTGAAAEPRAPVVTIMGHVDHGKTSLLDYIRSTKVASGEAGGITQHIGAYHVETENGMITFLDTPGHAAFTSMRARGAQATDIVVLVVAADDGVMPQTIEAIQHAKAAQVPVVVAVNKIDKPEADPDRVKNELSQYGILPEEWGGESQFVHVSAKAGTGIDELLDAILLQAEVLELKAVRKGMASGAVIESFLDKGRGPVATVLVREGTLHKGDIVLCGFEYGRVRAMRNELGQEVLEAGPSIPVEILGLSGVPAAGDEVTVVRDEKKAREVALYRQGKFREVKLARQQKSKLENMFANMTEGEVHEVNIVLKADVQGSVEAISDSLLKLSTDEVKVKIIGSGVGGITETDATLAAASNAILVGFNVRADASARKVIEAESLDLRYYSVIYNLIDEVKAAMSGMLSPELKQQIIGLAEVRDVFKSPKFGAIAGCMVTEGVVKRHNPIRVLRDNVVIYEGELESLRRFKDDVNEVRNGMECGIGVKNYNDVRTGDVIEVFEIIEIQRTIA

Molecule	Ki (30S IC [1]; mRNA mInfA, read-out: 30S IC Ki (μM), replicates)	Ki (30S IC [1]; mRNA mInfA, read-out: 30S IC Ki Average)	Ki (30S IC [1]; mRNA mTufA, read-out: 30S IC Ki (μM), replicates)	Ki (30S IC [1]; mRNA mTufA, read-out: 30S IC Ki Average)	ppGpp tolerance (30S IC [1]; 30S ICs with 4-fold excess of ppGpp (0.2 mM) over GTP vs without alarmone)	T. initiation Average (30S IC [2]; NS to S 1)	T. initiation Replicates (30S IC [2]; NS to S 1)	T. initiation Average (30S IC [2]; NS to S 2)	T. initiation Replicates (30S IC [2]; NS to S 2)	T. initiation Average (30S IC [2]; NS to S 3)	T. initiation Replicates (30S IC [2]; NS to S 3)	T. initiation Average (30S IC [2]; NS to S 4)	T. initiation Replicates (30S IC [2]; NS to S 4)	T. initiation Average (30S IC [2]; NS to S 5)	T. initiation Replicates (30S IC [2]; NS to S 5)	translation initiation efficiency (30S IC formation retained) at S conditions (30S IC [2]; S: 1 mM ppGpp, 0.25 mM pppGpp, 0.14 mM GTP, 0.05 mM GDP)
Nc1nc2c(ncn2[C@@H]2O[C@H](COP(=O)(O)OP(=O)(O)O)[C@@H](OP(=O)(O)OP(=O)(O)O)[C@H]2O)c(=O)[nH]1 [ppGpp]	0.598 µM and 0.576 µM and 0.587 µM	0.587 µM	2.19 µM and 2.21 µM and 2.22 µM	2.21 µM												
B1					up to 25%	81.23%	79.55% and 82.59% and 81.55%	75.89%	72.98% and 77.43% and 77.26%	60.14%	59.08% and 60.37% and 60.97%	45.96%	44.86% and 46.36% and 46.65%	23.01%	22.61% and 23.62% and 22.79%	25%
